Data reported in patent publication US20240336686A1 (ELPISCIENCE SUZHOU BIOPHARMA, published 2024).
Like-named read-outs stand apart in the source and are kept apart here.

Legend:
[1] = target: T1, Full length human SIRPα v1 with beta-gal fragment (ED) at its C-terminal, in K562 cells (human, UniProt P78324 31-504); assay: cell-based or functional assay
[2] = target: T2, human SIRPα v1 on CHOK1 cells (human, UniProt P78324 31-504); assay: FACS, CHOK1 cells stably expressing human SIRPα v1
T2 construct: whole, on cells; also called CHOK1-hSIRPα v1; cell surface human SIRPα v1
From the text: (§1) Binding activity of the purified chimeric antibodies against human SIRPα variants was detected by FACS assay using CHOK1 cells or 293F cells stably expressing human SIRPα v1 and CHOK1 cells stably expressing human SIRPα v2. […] EC₅₀ and top signal calculated using GraphPad Prism9.0.

[3] = target: T3, human SIRPα v2 on CHOK1 cells (human, UniProt P78324 31-504); assay: FACS, CHOK1 cells stably expressing human SIRPα v2
T3 construct: whole, on cells; also called CHOK1-hSIRPα v2; cell surface human SIRPα v2
From the text: as §1

[4] = target: T4, human SIRPα v1 ECD recombinant protein (human, UniProt P78324 31-373); assay: competitive ELISA, plate-coated human SIRPα v1 ECD; blocked ligand: mFc tagged human CD47 ECD
T4 construct: extracellular domain; Coated on the ELISA plate
Experimental: (§2) Competitive ELISA assay was used to determine whether the purified chimeric antibodies can block CD47 and SIRPα interaction. Briefly, antibody and mFc tagged human CD47 ECD recombinant protein were co-incubated with ELISA microplate coated human SIRPα v1 ECD or human SIRPα v2 ECD recombinant protein. The concentration of soluble ECD of CD47 is 25 nM, and the concentration of soluble ECD of SIRPα is 20 nM. After washing, HRP labeled anti-mouse Fc 2nd antibody (Sigma) was added and incubated at 37° C. for 1 hour. Then, 100 μl/well of TMB solution (Biotechnology) was added. After incubation for 15 minutes at room temperature, the reaction was stopped by the addition of 50 μl of 1N HCl. OD 450 nm was read. Blocking ratio was determined by blockade of human SIRPα ECD recombinant protein binding to ELISA microplate coated human CD47 ECD recombinant protein. All antibodies as tested can block interaction between human CD47 and different human SIRPα variants.

[5] = target: T5, human SIRPα v2 ECD recombinant protein (human); assay: competitive ELISA, plate-coated human SIRPα v2 ECD; blocked ligand: mFc tagged human CD47 ECD
T5 construct: extracellular domain; Coated on the ELISA plate
Experimental: as §2

[6] = target: human PDL1 on cells (human, UniProt Q9NZQ7 19-290); assay: cell-based or functional assay
[7] = target: human PDL1 protein (Octet assay) (human, UniProt Q9NZQ7 19-238); assay: Octet; antibody on sensor, PDL1 protein in solution
Experimental: The Anti-PDL1/SIRPα bispecific protein were characterized for binding affinity against human PDL1 using Octet assay (ForeBio) according to manufacturer's manual, separately. Briefly, the antibodies were coupled on sensors and then the sensors were dipped into PDL1 protein gradients (start at 200 nM, with 2-fold dilution and totally 8 doses). Their binding responses were measured in real-time and results were fit globally.

[8] = target: T5, human SIRPα v2 ECD recombinant protein; assay: competitive ELISA, plate-coated human SIRPα v2 ECD; blocked ligand: mFc tagged human CD47 ECD; remark: listed apart in the source
Experimental: as §2
(§3) The humanized antibodies were tested for the ability to block CD47 and SIRPα interaction with competitive ELISA assay (refer to methods described above).

[9] = target: T2, human SIRPα v1 on CHOK1 cells; assay: FACS, CHOK1 cells stably expressing human SIRPα v1; remark: listed apart in the source
[10] = target: T3, human SIRPα v2 on CHOK1 cells; assay: FACS, CHOK1 cells stably expressing human SIRPα v2; remark: listed apart in the source
[11] = target: T6, Human SIRPα v2 (human); assay: SPR (Biacore), 1:1 binding model
T6 construct: also called human SIRPα v2 (antigen of the Biacore assay)
Experimental: The humanized antibodies were characterized for binding affinity against human SIRPα v1, human SIRPα v2 using Surface Plasmon Resonance technology (Biacore system). The association and dissociation curves were fit with 1:1 binding model, and the Ka/Kd/KD values for each antibody were calculated.

[12] = target: T4, human SIRPα v1 ECD recombinant protein; assay: competitive ELISA, plate-coated human SIRPα v1 ECD; blocked ligand: mFc tagged human CD47 ECD; remark: listed apart in the source
Experimental: as §2, §3

[13] = target: T1, Full length human SIRPα v1 with …; assay: cell-based or functional assay; remark: listed apart in the source
[14] = target: T2, human SIRPα v1 on CHOK1 cells; assay: competitive FACS, CHOK1 cells stably expressing human SIRPα v1; blocked ligand: mFc tagged human CD47 ECD
Experimental: (§4) Competitive FACS assay was also set up to further compare the blocking activity of the humanized antibodies and some known anti-SIRPα antibodies. Briefly antibody and mFc tagged human CD47 ECD recombinant protein were co-incubated with CHOK1 cells stably expressing human SIRPα v1 or human SIRPα v2. After washing, dye labeled anti-mouse Fc 2nd antibody (Sigma) was added and incubated at 37° C. for 1 hour. Fluorescence intensity was detected. Blocking ratio was determined by blockade of human CD47 ECD recombinant protein binding to SIRPα expressed CHOK1 cells.

[15] = target: T3, human SIRPα v2 on CHOK1 cells; assay: competitive FACS, CHOK1 cells stably expressing human SIRPα v2; blocked ligand: mFc tagged human CD47 ECD
Experimental: as §4

T2 sequence (P78324 31-504): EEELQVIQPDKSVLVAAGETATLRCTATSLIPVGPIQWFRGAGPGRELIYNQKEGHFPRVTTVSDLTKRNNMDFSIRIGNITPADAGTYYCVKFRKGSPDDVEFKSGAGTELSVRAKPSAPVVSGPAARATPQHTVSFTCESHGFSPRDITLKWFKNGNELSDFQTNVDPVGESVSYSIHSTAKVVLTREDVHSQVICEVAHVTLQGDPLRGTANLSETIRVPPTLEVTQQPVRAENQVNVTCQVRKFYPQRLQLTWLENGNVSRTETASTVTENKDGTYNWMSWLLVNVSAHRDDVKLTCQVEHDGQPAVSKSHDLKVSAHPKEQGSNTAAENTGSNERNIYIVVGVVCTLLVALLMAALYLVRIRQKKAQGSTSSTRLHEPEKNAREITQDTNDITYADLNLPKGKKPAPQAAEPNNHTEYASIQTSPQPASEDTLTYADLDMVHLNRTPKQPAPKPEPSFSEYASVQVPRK
T1 sequence (P78324 31-504): as above
T4 sequence (P78324 31-373): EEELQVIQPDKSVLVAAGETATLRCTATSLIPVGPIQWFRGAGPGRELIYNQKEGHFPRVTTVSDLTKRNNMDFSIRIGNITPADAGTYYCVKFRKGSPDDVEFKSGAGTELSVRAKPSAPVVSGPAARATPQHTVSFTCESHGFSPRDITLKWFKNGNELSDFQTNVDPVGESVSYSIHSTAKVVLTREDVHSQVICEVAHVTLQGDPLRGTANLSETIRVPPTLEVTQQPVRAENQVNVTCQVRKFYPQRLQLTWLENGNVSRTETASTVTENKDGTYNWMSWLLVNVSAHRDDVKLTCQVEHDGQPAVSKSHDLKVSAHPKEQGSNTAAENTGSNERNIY
Sequence of human PDL1 protein (Octet assay) (Q9NZQ7 19-238 limits assumed): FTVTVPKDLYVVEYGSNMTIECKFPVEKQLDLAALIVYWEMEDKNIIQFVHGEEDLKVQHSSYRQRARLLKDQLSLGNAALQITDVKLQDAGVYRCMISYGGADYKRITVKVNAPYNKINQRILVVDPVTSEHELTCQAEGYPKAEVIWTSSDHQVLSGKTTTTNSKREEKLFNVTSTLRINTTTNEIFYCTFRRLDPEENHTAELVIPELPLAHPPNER
T3 sequence (P78324 other isoform, or with tags, fused parts or gaps limits assumed): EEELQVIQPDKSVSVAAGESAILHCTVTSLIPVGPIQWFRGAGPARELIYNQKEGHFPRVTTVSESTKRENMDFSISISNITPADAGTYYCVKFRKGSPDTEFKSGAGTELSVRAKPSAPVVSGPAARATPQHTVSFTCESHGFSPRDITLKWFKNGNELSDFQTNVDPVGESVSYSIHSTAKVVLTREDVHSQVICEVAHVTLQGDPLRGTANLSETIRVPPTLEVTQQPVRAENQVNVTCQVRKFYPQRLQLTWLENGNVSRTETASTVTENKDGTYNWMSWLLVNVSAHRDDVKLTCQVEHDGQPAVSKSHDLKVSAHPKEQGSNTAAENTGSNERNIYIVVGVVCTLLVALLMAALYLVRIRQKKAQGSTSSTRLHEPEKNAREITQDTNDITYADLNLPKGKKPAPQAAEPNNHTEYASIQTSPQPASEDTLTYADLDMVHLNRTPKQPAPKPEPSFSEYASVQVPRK
Sequence of human PDL1 on cells (Q9NZQ7 19-290): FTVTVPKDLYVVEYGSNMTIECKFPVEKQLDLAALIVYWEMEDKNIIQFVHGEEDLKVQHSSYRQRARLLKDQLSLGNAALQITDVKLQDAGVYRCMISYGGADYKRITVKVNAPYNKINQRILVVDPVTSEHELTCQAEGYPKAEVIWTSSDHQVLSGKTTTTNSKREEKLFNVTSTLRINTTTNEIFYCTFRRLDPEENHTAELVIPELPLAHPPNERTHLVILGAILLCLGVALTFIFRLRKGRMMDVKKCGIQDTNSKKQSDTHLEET

Binder | IC50 (SHP-1 recruitment blocking) [1] | TOP blocking (SHP-1 recruitment) [1] | EC50 [2] | TOP MFI [2] | EC50 [3] | TOP MFI [3] | IC50 [4] | IC50 [8] | TOP blocking [8] | EC50 [9] | TOP MFI [9] | EC50 [10] | TOP MFI [10] | Kd [11] | koff [11] | kon [11] | IC50 [12] | TOP blocking [12] | IC50 (SHP-1 recruitment blocking) [13] | TOP blocking (SHP-1 recruitment) [13] | further results
Anti-SIRPα antibody C15 (antibody, V domains shown, Mouse variable regions; tested as purified chimeric antibody; also called 015c) VH: EVQLQQSGVEVVQPGASVKLSCTASGFNIEAYYMHWVKQRTEQGLEWIGRIDPEDGESKYAPKFQGKATMTADTSSSTAYLQLSSLTSDDTAVYYCVRGSYEYWGQGTTLTVSS VL: QIVLTQSPAIMSASPGEKVTLTCSASSSVSSSYLYWYQQKPGSSPKLWIYSTSNLASGVPPRFSGSGSGTSYSLTISSMQAEDAASYFCYQWSSYPYTFGGGTKLEIK | 0.09 nM | 73.5% | 1.49 nM | 80000 MFI | 1.58 nM | 50100 MFI | 2.32 nM | – | – | – | – | – | – | – | – | – | – | – | – | – | TOP blocking [4]: 96.4%; IC50 [5]: 2.45 nM; TOP blocking [5]: 96.7%
Anti-PDL1/SIRPα bispecific antibody ES019-026 (bispecific antibody, not shown: small tags and cut ends; a dimerising Fc or GST) light (part 1 of 2): EVQVVESGGGLVQSGGSLKLSCAGSGFTESAGFMVWHRQVPGKERELVALIATPSGSTNYADSVKGRFTISRDNGKNTVYLQMNSLKPEDTAVYYCNIRGYWGQGTLVTVSS light (part 2 of 2): QIVLTQSPAIMSASPGEKVTLTCSASSSVSSSYLYWYQQKPGSSPKLWIYSTSNLASGVPARFSGSGSGTSYSLTISSMEAEDAASYFCHQWSSYPYTFGGGTKLEIK heavy: EVQLQQSGAELVKPGASVKLSCTASGFNIKDYYMHWVKQRTEQGLEWIGRIDPEDGETKYAPKFQGKATITADTSSNTAYLQLSSLTSEDTAVYYCDRGLAYWGQGTLVTVSA | – | – | – | – | – | – | – | – | – | – | – | – | – | – | – | – | – | – | – | – | EC50 (read off the curve) [6]: ~1 nM; Kd [7]: 4.1 nM; koff [7]: 0.00639 s⁻¹; kon [7]: 1.56e+06 M⁻¹ s⁻¹
Anti-SIRPα antibody C59 (antibody, V domains shown, Mouse variable regions; tested as purified chimeric antibody; also called 059c) VH: QVQLQQSGPELVKPGASVKMSCKASGYTFSEYVLSWVKQRTGQGLEWIGEIYPGTITTYYNEKFKGKATLTADKSSNTAYIQLTSLTSEDSAVYFCGRFYDYDGGWFAYWGQGTLLTVSA VL: ENVLTQSPEKMAVSLGQKVTMTCSASSSVSSSDLHWYQQKSGASPKPLIHGTSNLASGVPARFSGSGSGTSYSLTISSVEAEDAATYYCQQWSGYPWTFGGGTNLEIK | 0.07 nM | 66.9% | 1.45 nM | 69800 MFI | 12 nM | 19600 MFI | 2.63 nM | – | – | – | – | – | – | – | – | – | – | – | – | – | TOP blocking [4]: 97%; IC50 [5]: 54.1 nM; TOP blocking [5]: 84.4%
Humanized anti-SIRPα antibody hu025.023 (antibody, V domains shown, Humanized from C25) VH: EVQLVQSGAEVKKPGATVKISCKVSGFNIKDYYMHWVQQAPGKGLEWIGRIDPEDAETKYAPKFQGRVTITADTSTNTAYMELSSLRSEDTAVYYCDRGLAYWGQGTLVTVSS VL: EIVLTQSPATLSLSPGERATLSCSASSSVSSSYLYWYQQKPGQAPKLWIYSTSNLASGIPARFSGSGSGTDFTLTISSLEPEDFAVYYCHQWSSYPYTFGQGTKLEIK | – | – | – | – | – | – | – | 2.07 nM | 98% | 1.13 nM | 57800 MFI | 0.81 nM | 45800 MFI | 2.78 nM | 0.00492 s⁻¹ | 1.77e+06 M⁻¹ s⁻¹ | 2.6 nM | 97.2% | 0.1 nM | 85.5% | IC50 [14]: 0.57 nM; TOP blocking [14]: 97.7%; IC50 [15]: 0.75 nM; TOP blocking [15]: 100%
Humanized anti-SIRPα antibody hu025.060 (antibody, V domains shown, Humanized from C25) VH: EVQLVQSGAEVKKPGATVKISCKASGFNIKDYYMHWVQQAPGKGLEWIGRIDPEDAETKYAPKFQGRVTITADTSTNTAYMELSSLRSEDTAVYYCDRGLAYWGQGTLVTVSS VL: EIVLTQSPATLSLSPGERATLSCSASSSVSSSYLYWYQQKPGQAPKLWIYSTSNLASGIPARFSGSGSGTDFTLTISSLEPEDFAVYYCHQWSSYPYTFGQGTKLEIK | – | – | – | – | – | – | – | 1.88 nM | 97% | 0.84 nM | 61500 MFI | 0.8 nM | 48800 MFI | 2.34 nM | 0.00344 s⁻¹ | 1.47e+06 M⁻¹ s⁻¹ | 2.15 nM | 95.2% | 0.09 nM | 87.5% | IC50 [14]: 0.53 nM; TOP blocking [14]: 98.7%; IC50 [15]: 0.77 nM; TOP blocking [15]: 99.8%
Humanized anti-SIRPα antibody hu025.059 (antibody, V domains shown, Humanized from C25) VH: EVQLVQSGAEVKKPGATVKISCKASGFNIKDYYMHWVQQAPGKGLEWIGRIDPEDAETKYAPKFQGRVTITADTSTNTAYMELSSLRSEDTAVYYCDRGLAYWGQGTLVTVSS VL: EIVLTQSPATLSLSPGERATLSCSASSSVSSSYLYWYQQKPGQAPKLWIYSTSNLASGIPARFSGSGSGTDYTLTISSLEPEDFAVYYCHQWSSYPYTFGQGTKLEIK | – | – | – | – | – | – | – | 2.03 nM | 98.3% | 1.05 nM | 59400 MFI | 0.75 nM | 47300 MFI | 2.76 nM | 0.00392 s⁻¹ | 1.42e+06 M⁻¹ s⁻¹ | 2.48 nM | 97.1% | 0.1 nM | 78.8% | –
